From paper PMC4805664 (2016)
Square brackets hold non-standard residues; d marks the D form. * marks the point of attachment. DOTA = O=C(O)CN1CCN(CC(=O)O)CCN(CC(=O)*)CCN(CC(=O)O)CC1

Experiments:
La-DOTA-c(RGDyK) [1] = target: T1, La-DOTA-c(RGDyK) (also: DOTA as La complex); test: SPR competition
T1 chain: cyclo(RGD[dY]K(DOTA))

La-DOTA-c(RGDyK) [2] = target: T1, La-DOTA-c(RGDyK); test: SPR competition

B1: Integrin alphaVbeta3 (protein)
chain 1: FNLDVDSPAEYSGPEGSYFGFAVDFFVPSASSRMFLLVGAPKANTTQPGIVEGGQVLKCDWSSTRRCQPIEFDATGNRDYAKDDPLEFKSHQWFGASVRSKQDKILACAPLYHWRTEMKQEREPVGTCFLQDGTKTVEYAPCRSQDIDADGQGFCQGGFSIDFTKADRVLLGGPGSFYWQGQLISDQVAEIVSKYDPNVYSIKYNNQLATRTAQAIFDDSYLGYSVAVGDFNGDGIDDFVSGVPRAARTLGMVYIYDGKNMSSLYNFTGEQMAAYFGFSVAATDINGDDYADVFIGAPLFMDRGSDGKLQEVGQVSVSLQRASGDFQTTKLNGFEVFARFGSAIAPLGDLDQDGFNDIAIAAPYGGEDKKGIVYIFNGRSTGLNAVPSQILEGQWAARSMPPSFGYSMKGATDIDKNGYPDLIVGAFGVDRAILYRARPVITVNAGLEVYPSILNQDNKTCSLPGTALKVSCFNVRFCLKADGKGVLPRKLNFQVELLLDKLKQKGAIRRALFLYSRSPSHSKNMTISRGGLMQCEELIAYLRDESEFRDKLTPITIFMEYRLDYRTAADTTGLQPILNQFTPANISRQAHILLDCGEDNVCKPKLEVSVDSDQKKIYIGDDNPLTLIVKAQNQGEGAYEAELIVSIPLQADFIGVVRNNEALARLSCAFKTENQTRQVVCDLGNPMKAGTQLLAGLRFSVHQQSEMDTSVKFDLQIQSSNLFDKVSPVVSHKVDLAVLAAVEIRGVSSPDHVFLPIPNWEHKENPETEEDVGPVVQHIYELRNNGPSSFSKAMLHLQWPYKYNNNTLLYILHYDIDGPMNCTSDMEINPLRIKISSLQTTEKNDTVAGQGERDHLITKRDLALSEGDIHTLGCGVAQCLKIVCQVGRLDRGKSAILYVKSLLWTETFMNKENQNHSYSLKSSASFNVIEFPYKNLPIEDITNSTLVTTNVTWGIQPAPMPV
chain 2: GPNICTTRGVSSCQQCLAVSPMCAWCSDEALPLGSPRCDLKENLLKDNCAPESIEFPVSEARVLEDRPLSDKGSGDSSQVTQVSPQRIALRLRPDDSKNFSIQVRQVEDYPVDIYYLMDLSYSMKDDLWSIQNLGTKLATQMRKLTSNLRIGFGAFVDKPVSPYMYISPPEALENPCYDMKTTCLPMFGYKHVLTLTDQVTRFNEEVKKQSVSRNRDAPEGGFDAIMQATVCDEKIGWRNDASHLLVFTTDAKTHIALDGRLAGIVQPNDGQCHVGSDNHYSASTTMDYPSLGLMTEKLSQKNINLIFAVTENVVNLYQNYSELIPGTTVGVLSMDSSNVLQLIVDAYGKIRSKVELEVRDLPEELSLSFNATCLNNEVIPGLKSCMGLKIGDTVSFSIEAKVRGCPQEKEKSFTIKPVGFKDSLIVQVTFDCDCACQAQAEPNSHRCNNGNGTFECGVCRCGPGWLGSQCECSEEDYRPSQQDECSPREGQPVCSQRGECLCGQCVCHSSDFGKITGKYCECDDFSCVRYKGEMCSGHGQCSCGDCLCDSDWTGYYCNCTTRTDTCMSSNGLLCSGRGKCECGSCVCIQPGSYGDTCEKCPTCPDACTFKKECVECKKFDRGALHDENTCNRYCRDEIESVKELKDTGKDAVNCTYKNEDDCVVRFQYYEDSSGKSILYVVEEPECPKGPD
An IC50 (La-DOTA-c(RGDyK) [1]) of 33 nM and a Ki (La-DOTA-c(RGDyK) [2]) of 26 nM were found for B1 in this work.
